Laboratory results taken from IntAct's records for PubMed 27071417.

B1: Caspase recruitment domain-containing protein 14 (Homo sapiens), Q9BXL6-2 (parent)
chain: MGELCRRDSALTALDEETLWEMMESHRHRIVRCICPSRLTPYLRQAKVLCQLDEEEVLHSPRLTNSAMRAGHLLDLLKTRGKNGAIAFLESLKFHNPDVYTLVTGLQPDVDFSNFSGLMETSKLTECLAGAIGSLQEELNQEKGQKEVLLRRCQQLQEHLGLAETRAEGLHQLEADHSRMKREVSAHFHEVLRLKDEMLSLSLHYSNALQEKELAASRCRSLQEELYLLKQELQRANMVSSCELELQEQSLRTASDQESGDEELNRLKEENEKLRSLTFSLAEKDILEQSLDEARGSRQELVERIHSLRERAVAAERQREQYWEEKEQTLLQFQKSKMACQLYREKVNALQAQVCELQKERDQAYSARDSAQREISQSLVEKDSLRRQVFELTDQVCELRTQLRQLQAEPPGVLKQEARTREPCPREKQRLVRMHAICPRDDSDCSLVSSTESQLLSDLSATSSRELVDSFRSSSPAPPSQQSLYKRVAEDFGEEPWSFSSCLEIPEGDPGALPGAKAGDPHLDYELLDTADLPQLESSLQPVSPGRLDVSESGVLMRRRPARRILSQVTMLAFQGDALLEQISVIGGNLTGIFIHRVTPGSAADQMALRPGTQIVMVDYEASEPLFKAVLEDTTLEEAVGLLRRVDGFCCLSVKVNTDGYKRLLQDLEAKVATSGDSFYIRVNLAMEGRAKGELQVHCNEVLHVTDTMFQGCGCWHAHRVNSYTMKDTAAHGTIPNYSR
partner: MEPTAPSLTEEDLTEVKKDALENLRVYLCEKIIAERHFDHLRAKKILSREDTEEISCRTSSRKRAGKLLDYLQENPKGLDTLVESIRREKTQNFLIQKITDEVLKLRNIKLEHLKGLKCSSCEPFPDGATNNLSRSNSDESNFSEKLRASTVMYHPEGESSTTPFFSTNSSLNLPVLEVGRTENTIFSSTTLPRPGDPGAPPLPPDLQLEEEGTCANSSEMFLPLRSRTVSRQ
B2: Caspase recruitment domain-containing protein 14 (Homo sapiens), Q9BXL6-1 (parent)
chain: MGELCRRDSALTALDEETLWEMMESHRHRIVRCICPSRLTPYLRQAKVLCQLDEEEVLHSPRLTNSAMRAGHLLDLLKTRGKNGAIAFLESLKFHNPDVYTLVTGLQPDVDFSNFSGLMETSKLTECLAGAIGSLQEELNQEKGQKEVLLRRCQQLQEHLGLAETRAEGLHQLEADHSRMKREVSAHFHEVLRLKDEMLSLSLHYSNALQEKELAASRCRSLQEELYLLKQELQRANMVSSCELELQEQSLRTASDQESGDEELNRLKEENEKLRSLTFSLAEKDILEQSLDEARGSRQELVERIHSLRERAVAAERQREQYWEEKEQTLLQFQKSKMACQLYREKVNALQAQVCELQKERDQAYSARDSAQREISQSLVEKDSLRRQVFELTDQVCELRTQLRQLQAEPPGVLKQEARTREPCPREKQRLVRMHAICPRDDSDCSLVSSTESQLLSDLSATSSRELVDSFRSSSPAPPSQQSLYKRVAEDFGEEPWSFSSCLEIPEGDPGALPGAKAGDPHLDYELLDTADLPQLESSLQPVSPGRLDVSESGVLMRRRPARRILSQVTMLAFQGDALLEQISVIGGNLTGIFIHRVTPGSAADQMALRPGTQIVMVDYEASEPLFKAVLEDTTLEEAVGLLRRVDGFCCLSVKVNTDGYKRLLQDLEAKVATSGDSFYIRVNLAMEGRAKGELQVHCNEVLHVTDTMFQGCGCWHAHRVNSYTMKDTAAHGTIPNYSRAQQQLIALIQDMTQQCTVTRKPSSGGPQKLVRIVSMDKAKASPLRLSFDRGQLDPSRMEGSSTCFWAESCLTLVPYTLVRPHRPARPRPVLLVPRAVGKILSEKLCLLQGFKKCLAEYLSQEEYEAWSQRGDIIQEGEVSGGRCWVTRHAVESLMEKNTHALLDVQLDSVCTLHRMDIFPIVIHVSVNEKMAKKLKKGLQRLGTSEEQLLEAARQEEGDLDRAPCLYSSLAPDGWSDLDGLLSCVRQAIADEQKKVVWTEQSPR
partner: B1 partner

Columns and labels:
Details in all cases: with bcl10_human BCL10, O95999
[1] = variants of: B1
[2] = variants of: B1; remark: listed apart in the source
[3] = variants of: B2; remark: listed apart in the source
[4] = variants of: B2; remark: listed apart in the source

| effect of a mutation on the interaction [1] | effect of a mutation on the interaction [2] | effect of a mutation on the interaction [3] | effect of a mutation on the interaction [4] | Variant |
| --- | --- | --- | --- | --- |
| increasing interaction strength | with no effect |  |  | G117S |
| increasing interaction strength | with no effect |  |  | E138A |
|  |  | with no effect | increasing interaction strength | E138A |
